Measurements reported in patent US20020193575A1 (published 2002).

Target: T1, recombinant E. coli human IL4 (non-glycosylated) (human, UniProt P05112 25-153)
T1 sequence (looked up): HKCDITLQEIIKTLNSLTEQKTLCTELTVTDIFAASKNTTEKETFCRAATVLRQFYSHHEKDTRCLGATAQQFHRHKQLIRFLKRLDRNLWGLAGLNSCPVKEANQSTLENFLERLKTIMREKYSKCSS
Experiment: cell-based or functional assay

B1: humanized 3B9 (IgG1) (antibody, V domains shown)
VH: QVTLRESGPALVKPTQTLTLTCTFSGFSLSTSGMGVSWIRQPPGKGLEWLAHIYWDDDKRYNPSLKSRLTISKDTSRNQVVLTMTNMDPVDTATYYCARRETVFYWYFDVWGRGTPVTVSS
VL: IVMTQSPDSLAVSLGERATINCKASQSVDYDGDSYMNWYQQKPGQPPKLLIYAASNLESGVPDRFSGSGSGTDFTLTISSLQAEDVAVYYCQQSNEDPPRFGGGTKVEIKR
B cell proliferation (3H thymidine), IC50: 0.047 nM
